{"source": "paper PMC4402133", "experiment_in_all_cases": "native gel or EMSA", "key": {"[1]": {"biological_target": "pPL-188 nascent chain (bovine) (UniProt P01239)"}, "[2]": {"biological_target": "pPL^45-Zn-163 nascent chain (bovine | S. cerevisiae) (UniProt P01239)"}, "[3]": {"biological_target": "pPL-163 nascent chain (bovine) (UniProt P01239)"}, "[4]": {"biological_target": "pPL-223 nascent chain (bovine) (UniProt P01239)"}}}
{"substance": "RAMP complex C (~500 kD Sec61/62/63 complex) (from UniProt P38377 1-476; P82009 1-39; P82008 1-33; Q05052 33-445)", "values": [{"measurement": "percent of nascent chains in complex C", "setting": "[1]", "value": 2, "unit": "%"}, {"measurement": "percent of nascent chains retained in complex C after 1 hour at 24°C", "setting": "[2]", "value": 95, "unit": "%"}, {"measurement": "percent of nascent chains in complex C", "setting": "[3]", "value": 2, "unit": "%"}, {"measurement": "percent of nascent chains retained in complex C after 1 hour at 24°C", "setting": "[3]", "value": 88, "unit": "%"}, {"measurement": "percent of nascent chains in complex C", "setting": "[4]", "value": 5, "unit": "%"}]}
